Data from patent US11135246B2, “Peptides and combination of peptides for use in immunotherapy against leukemias and other cancers” (Immatics Biotechnologies GmbH, priority 2017, dated 2021).

What follows are substances tested against HLA-B*07:02 (Homo sapiens, UniProt P01889) (assay: MHC binding assay, UV-ligand exchange with β2m ELISA, HLA-B*07:02). Details: binding to HLA-B*07:02, UV-ligand exchange.
From the text: (§1) Candidate peptides for T cell based therapies according to the present invention were further tested for their MHC binding capacity (affinity). The individual peptide-MHC complexes were produced by UV-ligand exchange, where a UV-sensitive peptide is cleaved upon UV-irradiation, and exchanged with the peptide of interest as analyzed. Only peptide candidates that can effectively bind and stabilize the peptide-receptive MHC molecules prevent dissociation of the MHC complexes. To determine the yield of the exchange reaction, an ELISA was performed based on the detection of the light chain (β2m) of stabilized MHC complexes. The assay was performed as generally described in Rodenko et al. (Rodenko et al., 2006).
(§2) 96 well MAXISorp plates (NUNC) were coated over night with 2 ug/ml streptavidin in PBS at room temperature, washed 4× and blocked for 1 h at 37° C. in 2% BSA containing blocking buffer. Refolded HLA-A*02:01/MLA-001 monomers served as standards, covering the range of 15-500 ng/ml. Peptide-MHC monomers of the UV-exchange reaction were diluted 100-fold in blocking buffer. Samples were incubated for 1 h at 37° C., washed four times, incubated with 2 ug/ml HRP conjugated anti-β2m for 1 h at 37° C., washed again and detected with TMB solution that is stopped with […]. Absorption was measured at 450 nm. Candidate peptides that show a high exchange yield (preferably higher than 50%, most preferred higher than 75%) are generally preferred for a generation and production of antibodies or fragments thereof, and/or T cell receptors or fragments thereof, as they show sufficient avidity to the MHC molecules and prevent dissociation of the MHC complexes.

Peptide exchange (MHC class I binding score, peptide exchange yield)	Substance
“+++” (>50 = +++)	77 (RPNGNSLFTSA; listed as Homo sapiens) [compound 77]

The substances below were run against HLA-B*44:02 (Homo sapiens, UniProt P01889, A223V/A65T/A93T/A95T/D201E/D98Y/E176V/E187L/E204Q/E69K/G107R/H137Y/K202T/L105A/L119I/N104T/N87E/Q56L/Q94N/R106L/R155S/R180D/S101N/S121R/S35A/S48T/T118I/V36M/W191S/Y140D/Y91S) (assay: MHC binding assay, UV-ligand exchange with β2m ELISA, HLA-B*44:02). Details: binding to HLA-B*44:02, UV-ligand exchange.
From the text: as §1, §2

Substance	Peptide exchange (MHC class I binding score, peptide exchange yield)
150 (EEVTDRSQL; listed as Homo sapiens) [compound 150]	“++” (>20% = ++)
151 (EVDASIFKAW; listed as Homo sapiens) [compound 151]	“++” (>20% = ++)
152 (AELLAKELY; listed as Homo sapiens) [compound 152]	“++” (>20% = ++)
153 (KEFEQVPGHL; listed as Homo sapiens) [compound 153]	“++” (>20% = ++)
154 (AEPGPVITW; listed as Homo sapiens) [compound 154]	“+++” (>50 = +++)
155 (NEFPVIVRL; listed as Homo sapiens) [compound 155]	“+++” (>50 = +++)
156 (FEVESLFQKY; listed as Homo sapiens) [compound 156]	“+++” (>50 = +++)
157 (VEIAEAIQL; listed as Homo sapiens) [compound 157]	“+++” (>50 = +++)
158 (GENEDNRIGL; listed as Homo sapiens) [compound 158]	“++” (>20% = ++)
159 (GELLGRQSF; listed as Homo sapiens) [compound 159]	“+++” (>50 = +++)
160 (EEETILHFF; listed as Homo sapiens) [compound 160]	“++” (>20% = ++)
161 (EEGDTLLHLF; listed as Homo sapiens) [compound 161]	“+++” (>50 = +++)
162 (DEAQARAAF; listed as Homo sapiens) [compound 162]	“++” (>20% = ++)
163 (EEWMGLLEY; listed as Homo sapiens) [compound 163]	“++++” (>75% = ++++)
164 (SEYSHLTRV; listed as Homo sapiens) [compound 164]	“++” (>20% = ++)
165 (VELDLQRSV; listed as Homo sapiens) [compound 165]	“++” (>20% = ++)
166 (NEVLASKY; listed as Homo sapiens) [compound 166]	“+” (>10% = +)
167 (KEIGAAVQAL; listed as Homo sapiens) [compound 167]	“+++” (>50 = +++)
168 (QEIQSLLTNW; listed as Homo sapiens) [compound 168]	“+++” (>50 = +++)
169 (EENGEVKEL; listed as Homo sapiens) [compound 169]	“++” (>20% = ++)
170 (SENEQRRMF; listed as Homo sapiens) [compound 170]	“+++” (>50 = +++)
171 (SEDLAVHLY; listed as Homo sapiens) [compound 171]	“++” (>20% = ++)
172 (VEDGLFHEF; listed as Homo sapiens) [compound 172]	“+++” (>50 = +++)
173 (KEYDFGTQL; listed as Homo sapiens) [compound 173]	“++” (>20% = ++)
174 (TDKSFPNAY; listed as Homo sapiens) [compound 174]	“+” (>10% = +)
175 (HEIDGKALFL; listed as Homo sapiens) [compound 175]	“++” (>20% = ++)
176 (AENAVSNLSF; listed as Homo sapiens) [compound 176]	“++” (>20% = ++)
177 (QENMQIQSF; listed as Homo sapiens) [compound 177]	“+++” (>50 = +++)
178 (REYEHYWTEL; listed as Homo sapiens) [compound 178]	“+++” (>50 = +++)

The remaining lines, values ahead:

Peptide exchange (MHC class I binding score, peptide exchange yield)	Substance
“++” (>20% = ++)	179 (AEIKQTEEKY; listed as Homo sapiens) [compound 179]
“++” (>20% = ++)	180 (EEPAFNVSY; listed as Homo sapiens) [compound 180]
“++” (>20% = ++)	181 (GEIKEPLEI; listed as Homo sapiens) [compound 181]
“++” (>20% = ++)	182 (AQNLSIIQY; listed as Homo sapiens) [compound 182]
“++” (>20% = ++)	183 (GESQDSTTAL; listed as Homo sapiens) [compound 183]
“++” (>20% = ++)	184 (RMPPFTQAF; listed as Homo sapiens) [compound 184]
“+++” (>50 = +++)	185 (SEGDNVESW; listed as Homo sapiens) [compound 185]
“+” (>10% = +)	186 (NEQKIVRF; listed as Homo sapiens) [compound 186]
“+” (>10% = +)	187 (SDAQRPSSF; listed as Homo sapiens) [compound 187]
“+++” (>50 = +++)	257 (KEFFFVKVF; listed as Homo sapiens) [compound 257]
“+++” (>50 = +++)	258 (EELFRDGVNW; listed as Homo sapiens) [compound 258]
“++” (>20% = ++)	259 (EENTLVQNY; listed as Homo sapiens) [compound 259]
“+++” (>50 = +++)	260 (AEIGEGAYGKVF; listed as Homo sapiens) [compound 260]
“+++” (>50 = +++)	261 (NEIEHIPVW; listed as Homo sapiens) [compound 261]
“+++” (>50 = +++)	262 (QENQAETHAW; listed as Homo sapiens) [compound 262]
“+++” (>50 = +++)	263 (REAGFQVKAY; listed as Homo sapiens) [compound 263]
“+++” (>50 = +++)	264 (SEDHSGSYW; listed as Homo sapiens) [compound 264]
“+++” (>50 = +++)	265 (QEVDASIFKAW; listed as Homo sapiens) [compound 265]
“++” (>20% = ++)	266 (VDASIFKAW; listed as Homo sapiens) [compound 266]
“+++” (>50 = +++)	267 (KEKFPINGW; listed as Homo sapiens) [compound 267]
“++” (>20% = ++)	268 (NEDKGTKAW; listed as Homo sapiens) [compound 268]
“+++” (>50 = +++)	269 (KELEDLNKW; listed as Homo sapiens) [compound 269]
“++” (>20% = ++)	270 (AESEDLAVHL; listed as Homo sapiens) [compound 270]
“++” (>20% = ++)	271 (AESEDLAVHLY; listed as Homo sapiens) [compound 271]
“+++” (>50 = +++)	272 (KEFELRSSW; listed as Homo sapiens) [compound 272]
“++” (>20% = ++)	273 (AEIEIVKEEF; listed as Homo sapiens) [compound 273]
“+++” (>50 = +++)	274 (GEAVTDHPDRLW; listed as Homo sapiens) [compound 274]
“++++” (>75% = ++++)	275 (TENPLTKLL; listed as Homo sapiens) [compound 275]
“+++” (>50 = +++)	276 (EEEGNLLRSW; listed as Homo sapiens) [compound 276]
“+++” (>50 = +++)	277 (EEGNLLRSW; listed as Homo sapiens) [compound 277]
